Tests used:
Assay in all cases: cell-based or functional assay
[1] = target: MTH1-S-tag fusion protein with no linker between MTH1 and the S-tag peptide
[2] = target: MTH1 target polypeptide with a 10 amino acid spacer and a carboxy terminal S-tag acceptor peptide
[3] = target: MTH1 target polypeptide with a 3 amino acid spacer and a carboxy terminal S-tag acceptor peptide

Measured: S protein concentration at which the fluorescent signal starts to saturate

His tagged RNase donor protein (S protein), sequence (P61823 other isoform, or with tags, fused parts or gaps limits assumed): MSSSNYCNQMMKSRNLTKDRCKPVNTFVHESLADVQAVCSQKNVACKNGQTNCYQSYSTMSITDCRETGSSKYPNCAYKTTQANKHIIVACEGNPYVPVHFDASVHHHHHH

His tagged RNase donor protein (S protein) (from UniProt P61823 47-150)
1 to 2 ng/µL: [1] | [2] | [3]

Source: patent US20230204594A1, “SYSTEMS AND METHODS FOR REAL-TIME CELLULAR DRUG-TARGET ENGAGEMENT” (NERD BIO LLC, priority 2021, published 2023)
